Publication PMC7096399

Legend:
[1] = biological target: His6-tagged FGF2 (Fibroblast Growth Factor 2, 18 kDa isoform), wild type, P09038-2; assay: AlphaScreen; conditions: His-FGF2 and GST-α1-subCD3 variants cross-titrated from 500 to 8 nM in PBS, 0.1% (w per v) BSA, 0.05% (w per v) Tween 20; selected concentration pairs …; parent: est. 100; read off a plot
[2] = biological target: α1-subCD3 as used in cross-linking and NMR experiments (migrates at 27 kDa) (human) (UniProt P05023); assay: cross-linking; BMOE (1:1 to protein) or DSG (4:1) at 25 °C in HK buffer (25 mM Hepes pH 7.4, 150 mM KCl); single proteins 10 µM, mixtures 20 µM total at ratios 1:1, 1:2, 2:1; SDS-PAGE with Coomassie staining or western blot

percent of parent [1] [%] | stoichiometry N [2] | Substance
100 |  | GST-α1-subCD3, small sub-domain of loop 3 of the cytoplasmic domain of α1 (from UniProt P05023) K524E; E525R
60 |  | GST-α1-subCD3, small sub-domain of loop 3 of the cytoplasmic domain of α1, P05023 D560N
 | 1 | His6-tagged FGF2 (Fibroblast Growth Factor 2, 18 kDa isoform), wild type (from UniProt P09038-2 1-155) (natural protein)
110 |  | GST-α1-subCD3, small sub-domain of loop 3 of the cytoplasmic domain of α1, P05023 K524M; E525Q; E498Q
100 |  | GST-α1-subCD3, small sub-domain of loop 3 of the cytoplasmic domain of α1 (from UniProt P05023) K524M; E525Q
